Results reported in patent US20210087238A1, “CELL PENETRATING PEPTIDES AND RELATED COMPOSITIONS AND METHODS” (Phylogica Limited, priority 2017, published 2021).

Molecular target: MDM2 (UniProt Q00987)
Assay: cell-based or functional assay

Sequence of UniProt Q00987 (Q00987 whole entry): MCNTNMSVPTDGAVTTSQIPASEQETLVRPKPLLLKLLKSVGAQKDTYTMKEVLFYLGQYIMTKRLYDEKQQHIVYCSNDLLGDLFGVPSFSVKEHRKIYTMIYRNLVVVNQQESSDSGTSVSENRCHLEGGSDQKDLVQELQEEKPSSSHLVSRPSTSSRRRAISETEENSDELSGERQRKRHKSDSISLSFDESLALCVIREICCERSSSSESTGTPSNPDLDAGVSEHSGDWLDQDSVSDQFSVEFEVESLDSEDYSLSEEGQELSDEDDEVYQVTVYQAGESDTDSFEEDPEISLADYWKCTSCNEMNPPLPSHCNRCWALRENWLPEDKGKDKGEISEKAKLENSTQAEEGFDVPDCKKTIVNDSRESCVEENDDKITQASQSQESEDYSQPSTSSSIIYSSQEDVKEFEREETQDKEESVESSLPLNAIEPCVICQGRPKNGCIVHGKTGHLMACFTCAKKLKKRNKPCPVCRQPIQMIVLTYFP

Substance: TAT_^DPMIα (peptide)
- IC50, viability of T47D cells after 48 h (resazurin reduction): 36.6 µM
